Consider nine proteins from article PMC6620310, “A ubiquitin-like domain is required for stabilizing the N-terminal ATPase module of human SMCHD1” (Communications Biology, 2019).

B1: SMCHD1(24–580) Q345R (domain or fragment, human, UniProt A6NHR9 24-580, looked up)
chain: GHRTVYLFDRREKESELGDRPLQVGERSDYAGFRACVCQTLGISPEEKFVITTTSRKEITCDNFDETVKDGVTLYLLQSVNQLLLTATKERIDFLPHYDTLVKSGMYEYYASEGQNPLPFALAELIDNSLSATSRNIGVRRIQIKLLFDETQGKPAVAVIDNGRGMTSKQLNNWAVYRLSKFTRQGDFESDHSGYVRPVPVPRSLNSDISYFGVGGKQAVFFVGQSARMISKPADSQDVHELVLSKEDFEKKEKNKEAIYSGYIRNRKPSDSVHITNDDERFLHHLIIEEKEKDSFTAVVITGVQPEHIQYLKNYFHLWTRRLAHIYHYYIHGPKGNEIRTSKEVEPFNNIDIEISMFEKGKVPKIVNLREIQDDMQTLYVNTAADSFEFKAHVEGDGVVEGIIRYHPFLYDRETYPDDPCFPSKLKDEDDEDDCFILEKAARGKRPIFECFWNGRLIPYTSVEDFDWCTPPKKRGLAPIECYNRISGALFTNDKFQVSTNKLTFMDLELKLKDKNTLFTRILNGQEQRMKIDREFALWLKDCHEKYDKQIKFTLFK
notes: SMCHD1, human, residues 24-580 with the arhinia variant Q345R; PDB 6MW7 holds the same limits with E147A; Human disease variant (arhinia); also called p.Q345R; source: E. coli Rosetta2(DE3), purified (Glutathione 4B Sepharose, TEV cleavage, Superdex200)
B2: SMCHD1(24–580) E473G (domain or fragment, human, UniProt A6NHR9 24-580, looked up)
chain: GHRTVYLFDRREKESELGDRPLQVGERSDYAGFRACVCQTLGISPEEKFVITTTSRKEITCDNFDETVKDGVTLYLLQSVNQLLLTATKERIDFLPHYDTLVKSGMYEYYASEGQNPLPFALAELIDNSLSATSRNIGVRRIQIKLLFDETQGKPAVAVIDNGRGMTSKQLNNWAVYRLSKFTRQGDFESDHSGYVRPVPVPRSLNSDISYFGVGGKQAVFFVGQSARMISKPADSQDVHELVLSKEDFEKKEKNKEAIYSGYIRNRKPSDSVHITNDDERFLHHLIIEEKEKDSFTAVVITGVQPEHIQYLKNYFHLWTRQLAHIYHYYIHGPKGNEIRTSKEVEPFNNIDIEISMFEKGKVPKIVNLREIQDDMQTLYVNTAADSFEFKAHVEGDGVVEGIIRYHPFLYDRETYPDDPCFPSKLKDEDDEDDCFILEKAARGKRPIFGCFWNGRLIPYTSVEDFDWCTPPKKRGLAPIECYNRISGALFTNDKFQVSTNKLTFMDLELKLKDKNTLFTRILNGQEQRMKIDREFALWLKDCHEKYDKQIKFTLFK
notes: SMCHD1, human, residues 24-580 with the arhinia variant E473G; PDB 6MW7 holds the same limits with E147A; Human disease variant (arhinia); also called p.E473G; source: E. coli Rosetta2(DE3), purified (Glutathione 4B Sepharose, TEV cleavage, Superdex200)
B3: SMCHD1(24–580) T523K (domain or fragment, human, UniProt A6NHR9 24-580, looked up)
chain: GHRTVYLFDRREKESELGDRPLQVGERSDYAGFRACVCQTLGISPEEKFVITTTSRKEITCDNFDETVKDGVTLYLLQSVNQLLLTATKERIDFLPHYDTLVKSGMYEYYASEGQNPLPFALAELIDNSLSATSRNIGVRRIQIKLLFDETQGKPAVAVIDNGRGMTSKQLNNWAVYRLSKFTRQGDFESDHSGYVRPVPVPRSLNSDISYFGVGGKQAVFFVGQSARMISKPADSQDVHELVLSKEDFEKKEKNKEAIYSGYIRNRKPSDSVHITNDDERFLHHLIIEEKEKDSFTAVVITGVQPEHIQYLKNYFHLWTRQLAHIYHYYIHGPKGNEIRTSKEVEPFNNIDIEISMFEKGKVPKIVNLREIQDDMQTLYVNTAADSFEFKAHVEGDGVVEGIIRYHPFLYDRETYPDDPCFPSKLKDEDDEDDCFILEKAARGKRPIFECFWNGRLIPYTSVEDFDWCTPPKKRGLAPIECYNRISGALFTNDKFQVSKNKLTFMDLELKLKDKNTLFTRILNGQEQRMKIDREFALWLKDCHEKYDKQIKFTLFK
notes: SMCHD1, human, residues 24-580 with the arhinia variant T523K; PDB 6MW7 holds the same limits with E147A; Human disease variant (arhinia); also called p.T523K; source: E. coli Rosetta2(DE3), purified (Glutathione 4B Sepharose, TEV cleavage, Superdex200)
B4: SMCHD1(24–580) E473Q (domain or fragment, human, UniProt A6NHR9 24-580, looked up)
chain: GHRTVYLFDRREKESELGDRPLQVGERSDYAGFRACVCQTLGISPEEKFVITTTSRKEITCDNFDETVKDGVTLYLLQSVNQLLLTATKERIDFLPHYDTLVKSGMYEYYASEGQNPLPFALAELIDNSLSATSRNIGVRRIQIKLLFDETQGKPAVAVIDNGRGMTSKQLNNWAVYRLSKFTRQGDFESDHSGYVRPVPVPRSLNSDISYFGVGGKQAVFFVGQSARMISKPADSQDVHELVLSKEDFEKKEKNKEAIYSGYIRNRKPSDSVHITNDDERFLHHLIIEEKEKDSFTAVVITGVQPEHIQYLKNYFHLWTRQLAHIYHYYIHGPKGNEIRTSKEVEPFNNIDIEISMFEKGKVPKIVNLREIQDDMQTLYVNTAADSFEFKAHVEGDGVVEGIIRYHPFLYDRETYPDDPCFPSKLKDEDDEDDCFILEKAARGKRPIFQCFWNGRLIPYTSVEDFDWCTPPKKRGLAPIECYNRISGALFTNDKFQVSTNKLTFMDLELKLKDKNTLFTRILNGQEQRMKIDREFALWLKDCHEKYDKQIKFTLFK
notes: SMCHD1, human, residues 24-580 with the arhinia variant E473Q; PDB 6MW7 holds the same limits with E147A; Human disease variant (arhinia); also called p.E473Q; source: E. coli Rosetta2(DE3), purified (Glutathione 4B Sepharose, TEV cleavage, Superdex200)
B5: SMCHD1(24–580) H348R (domain or fragment, human, UniProt A6NHR9 24-580, looked up)
chain: GHRTVYLFDRREKESELGDRPLQVGERSDYAGFRACVCQTLGISPEEKFVITTTSRKEITCDNFDETVKDGVTLYLLQSVNQLLLTATKERIDFLPHYDTLVKSGMYEYYASEGQNPLPFALAELIDNSLSATSRNIGVRRIQIKLLFDETQGKPAVAVIDNGRGMTSKQLNNWAVYRLSKFTRQGDFESDHSGYVRPVPVPRSLNSDISYFGVGGKQAVFFVGQSARMISKPADSQDVHELVLSKEDFEKKEKNKEAIYSGYIRNRKPSDSVHITNDDERFLHHLIIEEKEKDSFTAVVITGVQPEHIQYLKNYFHLWTRQLARIYHYYIHGPKGNEIRTSKEVEPFNNIDIEISMFEKGKVPKIVNLREIQDDMQTLYVNTAADSFEFKAHVEGDGVVEGIIRYHPFLYDRETYPDDPCFPSKLKDEDDEDDCFILEKAARGKRPIFECFWNGRLIPYTSVEDFDWCTPPKKRGLAPIECYNRISGALFTNDKFQVSTNKLTFMDLELKLKDKNTLFTRILNGQEQRMKIDREFALWLKDCHEKYDKQIKFTLFK
notes: SMCHD1, human, residues 24-580 with the arhinia variant H348R; PDB 6MW7 holds the same limits with E147A; Human disease variant (arhinia); also called p.H348R; source: E. coli Rosetta2(DE3), purified (Glutathione 4B Sepharose, TEV cleavage, Superdex200)
B6: SMCHD1(24–580) G137E (domain or fragment, human, UniProt A6NHR9 24-580, looked up)
chain: GHRTVYLFDRREKESELGDRPLQVGERSDYAGFRACVCQTLGISPEEKFVITTTSRKEITCDNFDETVKDGVTLYLLQSVNQLLLTATKERIDFLPHYDTLVKSGMYEYYASEEQNPLPFALAELIDNSLSATSRNIGVRRIQIKLLFDETQGKPAVAVIDNGRGMTSKQLNNWAVYRLSKFTRQGDFESDHSGYVRPVPVPRSLNSDISYFGVGGKQAVFFVGQSARMISKPADSQDVHELVLSKEDFEKKEKNKEAIYSGYIRNRKPSDSVHITNDDERFLHHLIIEEKEKDSFTAVVITGVQPEHIQYLKNYFHLWTRQLAHIYHYYIHGPKGNEIRTSKEVEPFNNIDIEISMFEKGKVPKIVNLREIQDDMQTLYVNTAADSFEFKAHVEGDGVVEGIIRYHPFLYDRETYPDDPCFPSKLKDEDDEDDCFILEKAARGKRPIFECFWNGRLIPYTSVEDFDWCTPPKKRGLAPIECYNRISGALFTNDKFQVSTNKLTFMDLELKLKDKNTLFTRILNGQEQRMKIDREFALWLKDCHEKYDKQIKFTLFK
notes: SMCHD1, human, residues 24-580 with the variant G137E (implicated in both arhinia and FSHD2); PDB 6MW7 holds the same limits with E147A; Human disease variant (arhinia and FSHD2); also called p.G137E; source: E. coli Rosetta2(DE3), purified (Glutathione 4B Sepharose, TEV cleavage, Superdex200)
B7: SMCHD1(24–580) S135C (domain or fragment, human, UniProt A6NHR9 24-580, looked up)
chain: GHRTVYLFDRREKESELGDRPLQVGERSDYAGFRACVCQTLGISPEEKFVITTTSRKEITCDNFDETVKDGVTLYLLQSVNQLLLTATKERIDFLPHYDTLVKSGMYEYYACEGQNPLPFALAELIDNSLSATSRNIGVRRIQIKLLFDETQGKPAVAVIDNGRGMTSKQLNNWAVYRLSKFTRQGDFESDHSGYVRPVPVPRSLNSDISYFGVGGKQAVFFVGQSARMISKPADSQDVHELVLSKEDFEKKEKNKEAIYSGYIRNRKPSDSVHITNDDERFLHHLIIEEKEKDSFTAVVITGVQPEHIQYLKNYFHLWTRQLAHIYHYYIHGPKGNEIRTSKEVEPFNNIDIEISMFEKGKVPKIVNLREIQDDMQTLYVNTAADSFEFKAHVEGDGVVEGIIRYHPFLYDRETYPDDPCFPSKLKDEDDEDDCFILEKAARGKRPIFECFWNGRLIPYTSVEDFDWCTPPKKRGLAPIECYNRISGALFTNDKFQVSTNKLTFMDLELKLKDKNTLFTRILNGQEQRMKIDREFALWLKDCHEKYDKQIKFTLFK
notes: SMCHD1, human, residues 24-580 with the arhinia variant S135C; PDB 6MW7 holds the same limits with E147A; Human disease variant (arhinia); also called p.S135C; source: E. coli Rosetta2(DE3), purified (Glutathione 4B Sepharose, TEV cleavage, Superdex200)
B8: SMCHD1(24–580) N139H (domain or fragment, human, UniProt A6NHR9 24-580, looked up)
chain: GHRTVYLFDRREKESELGDRPLQVGERSDYAGFRACVCQTLGISPEEKFVITTTSRKEITCDNFDETVKDGVTLYLLQSVNQLLLTATKERIDFLPHYDTLVKSGMYEYYASEGQHPLPFALAELIDNSLSATSRNIGVRRIQIKLLFDETQGKPAVAVIDNGRGMTSKQLNNWAVYRLSKFTRQGDFESDHSGYVRPVPVPRSLNSDISYFGVGGKQAVFFVGQSARMISKPADSQDVHELVLSKEDFEKKEKNKEAIYSGYIRNRKPSDSVHITNDDERFLHHLIIEEKEKDSFTAVVITGVQPEHIQYLKNYFHLWTRQLAHIYHYYIHGPKGNEIRTSKEVEPFNNIDIEISMFEKGKVPKIVNLREIQDDMQTLYVNTAADSFEFKAHVEGDGVVEGIIRYHPFLYDRETYPDDPCFPSKLKDEDDEDDCFILEKAARGKRPIFECFWNGRLIPYTSVEDFDWCTPPKKRGLAPIECYNRISGALFTNDKFQVSTNKLTFMDLELKLKDKNTLFTRILNGQEQRMKIDREFALWLKDCHEKYDKQIKFTLFK
notes: SMCHD1, human, residues 24-580 with the arhinia variant N139H; PDB 6MW7 holds the same limits with E147A; Human disease variant (arhinia); also called p.N139H; source: E. coli Rosetta2(DE3), purified (Glutathione 4B Sepharose, TEV cleavage, Superdex200)
B9: SMCHD1(24–580/E147A), seleno-methionine-labeled (domain or fragment, human, UniProt A6NHR9 24-580, looked up)
chain: GHRTVYLFDRREKESELGDRPLQVGERSDYAGFRACVCQTLGISPEEKFVITTTSRKEITCDNFDETVKDGVTLYLLQSVNQLLLTATKERIDFLPHYDTLVKSGMYEYYASEGQNPLPFALAALIDNSLSATSRNIGVRRIQIKLLFDETQGKPAVAVIDNGRGMTSKQLNNWAVYRLSKFTRQGDFESDHSGYVRPVPVPRSLNSDISYFGVGGKQAVFFVGQSARMISKPADSQDVHELVLSKEDFEKKEKNKEAIYSGYIRNRKPSDSVHITNDDERFLHHLIIEEKEKDSFTAVVITGVQPEHIQYLKNYFHLWTRQLAHIYHYYIHGPKGNEIRTSKEVEPFNNIDIEISMFEKGKVPKIVNLREIQDDMQTLYVNTAADSFEFKAHVEGDGVVEGIIRYHPFLYDRETYPDDPCFPSKLKDEDDEDDCFILEKAARGKRPIFECFWNGRLIPYTSVEDFDWCTPPKKRGLAPIECYNRISGALFTNDKFQVSTNKLTFMDLELKLKDKNTLFTRILNGQEQRMKIDREFALWLKDCHEKYDKQIKFTLFK
modifications: selenomethionine substituted for methionine
notes: Crystallised as a homodimer with one ATP per monomer; two homodimers in the asymmetric unit; also called SMCHD1 E147A; source: E. coli B834(DE3), purified (glutathione resin, TEV cleavage, Superdex200 with Mg2+/ATP, MonoQ)

One series deals with the molecule itself. In words: cross-linking; glutaraldehyde (final 0.0125%), protein at 2 mg/mL in 20 mM HEPES pH 7.5, 100 mM NaCl, 10% glycerol with 5 mM MgCl2 and 5 mM ATP, 40 min at room temperature, diluted 6.25-fold; SDS-PAGE.
As for B1, the binding result is on record as “binds”.

The next series concerns the molecule itself. The experiment in a line: native gel or EMSA; blue-native PAGE, 4–16% Bis-Tris; 2.2 µg/µl protein incubated with 5 mM MgCl2 and ATP 30 min on ice; 1 mM MgCl2 and 1 mM ATP in the running buffers; monomer and dimer bands quantified. On the technique in general: A gel shift assay detects complexes by their altered migration in electrophoresis.
As to B2, the binding result is “binds”.

Regarding B3, the binding result is given as “binds”.

For B4, the binding result is “binds”.

Consider B5, for which the binding result is listed as “binds”.

Take B6: the binding result is given as “binds”.

Turning to B7, the binding result is “binds”.

As to B8, the binding result is “binds”.

The next series concerns the molecule itself. In words: crystal structure; seleno-methionine protein at 8.5 mg/ml with 5 mM Mg2+/ATP, sitting drop; SAD phasing, 2.2 Å.
With B9, the binding result is given as “binds”.
